Data as given in paper PMC6093708, “Ligand discrimination and gating in cyclic nucleotide-gated ion channels from apo and partial agonist-bound cryo-EM structures” (eLife, 2018).

How the values were obtained:
SthK = target: T1, SthK (Winmispira thermophila, UniProt G0GA88); assay: single-channel recording in horizontal lipid bilayer; format: biochemical; details: very poor partial agonist; 7 mM cGMP; +100 mV; KCl, pH 7.0
T1 construct: gene Spith_0644; C-terminally truncated SthK 1-420; 19 extra N-terminal vector residues kept; expressed in E. coli C41(DE3); homotetramer in POPG/MSP1E3 nanodiscs or liposomes

[1] = target: SthK 1-420, cyclic nucleotide-gated potassium channel from Spirochaeta thermophila (Spirochaeta thermophila); assay: negative stain electron microscopy; SthK in lipid nanodiscs (20 ug/mL), uranyl acetate stain, 2D classification
[2] = target: SthK 1-420, cyclic nucleotide-gated potassium channel from Spirochaeta thermophila (Spirochaeta thermophila); assay: cryo-EM structure; SthK in POPG/MSP1E3 lipid nanodiscs; apo, with 2 mM cAMP or with 7 mM cGMP; 20 mM HEPES pH 8.0, 100 mM KCl; refined with C4 symmetry and without symmetry (C1)

T1 sequence (G0GA88 entry or part of it): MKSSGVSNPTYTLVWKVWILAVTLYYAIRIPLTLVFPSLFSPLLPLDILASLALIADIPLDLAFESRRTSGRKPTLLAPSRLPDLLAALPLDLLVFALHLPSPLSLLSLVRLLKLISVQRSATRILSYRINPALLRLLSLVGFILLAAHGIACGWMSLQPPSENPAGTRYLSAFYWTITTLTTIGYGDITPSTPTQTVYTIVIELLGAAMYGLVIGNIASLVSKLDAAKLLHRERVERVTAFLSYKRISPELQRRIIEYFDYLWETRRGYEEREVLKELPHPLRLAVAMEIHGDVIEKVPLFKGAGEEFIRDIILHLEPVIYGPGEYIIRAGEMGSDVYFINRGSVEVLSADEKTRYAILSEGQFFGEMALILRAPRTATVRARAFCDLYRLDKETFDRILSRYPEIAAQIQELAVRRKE

Row | Po (SthK) | stoichiometry N [1] | stoichiometry N [2] | Compound
1 | ~ 0.003 | – | – | Nc1nc2c(ncn2[C@@H]2O[C@@H]3COP(=O)(O)O[C@H]3[C@H]2O)c(=O)[nH]1 [cGMP]
2 | – | 4 | 4 | SthK 1-420, cyclic nucleotide-gated potassium channel from Spirochaeta thermophila (natural protein)
